In patent US20230094162A1 (MacroGenics, published 2023):
Like-named read-outs stand apart in the source and are kept apart here. One block for each binder: values may come before it.

How the values were obtained:
[1] = molecular target: T1, CD137 expressed on the cell surface (CHO/CD137 cells) (UniProt Q07011 24-255, limits assumed); assay: flow cytometry (FACS) on CHO cells expressing CD137, MFI
T1 construct: whole, on cells; also called cell surface CD137; Jurkat-NF-κB-Luc reporter cells overexpressing CD137
T1 sequence (Q07011 24-255 limits assumed): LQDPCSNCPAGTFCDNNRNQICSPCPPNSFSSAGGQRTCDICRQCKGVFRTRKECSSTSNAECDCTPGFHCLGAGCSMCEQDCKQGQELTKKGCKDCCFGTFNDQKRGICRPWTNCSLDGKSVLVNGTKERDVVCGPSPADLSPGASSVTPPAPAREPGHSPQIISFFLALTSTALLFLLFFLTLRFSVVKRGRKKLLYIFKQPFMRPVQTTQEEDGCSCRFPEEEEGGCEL

[2] = molecular target: T2, PD-L1 expressed on the cell surface (CHO/PD-L1 cells) (UniProt Q9NZQ7 19-290); assay: cell-based or functional assay
T2 sequence (Q9NZQ7 19-290): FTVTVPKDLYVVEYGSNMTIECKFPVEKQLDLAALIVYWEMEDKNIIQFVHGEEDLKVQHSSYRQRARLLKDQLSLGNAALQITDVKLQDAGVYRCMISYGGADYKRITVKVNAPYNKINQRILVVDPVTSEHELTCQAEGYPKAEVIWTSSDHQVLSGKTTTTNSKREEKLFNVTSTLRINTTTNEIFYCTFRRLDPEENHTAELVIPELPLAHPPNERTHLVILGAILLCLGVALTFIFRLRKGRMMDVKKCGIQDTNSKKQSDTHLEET

[3] = molecular target: T2, PD-L1 expressed on the cell surface …; assay: cell-based or functional assay; remark: listed apart in the source
[4] = molecular target: T3, His-tagged soluble human CD137 fusion protein (huCD137) (human, UniProt Q07011 24-186); assay: ELISA, plate-coated soluble human CD137, hybridoma supernatant
T3 construct: extracellular domain; The ELISA method allows a His or a human Fc fusion; also called shCD137 His; huCD137-His; not shown: His tag
T3 sequence (Q07011 24-186): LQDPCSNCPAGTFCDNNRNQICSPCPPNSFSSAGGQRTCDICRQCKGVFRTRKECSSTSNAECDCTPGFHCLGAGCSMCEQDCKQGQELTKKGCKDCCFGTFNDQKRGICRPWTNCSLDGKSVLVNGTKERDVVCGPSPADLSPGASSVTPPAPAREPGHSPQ
Experimental: (§1) ELISA assays to evaluate the test articles for CD137 binding were performed essentially as follows: flat bottom maxisorb 96-well plates were coated with soluble human or cynomolgus monkey CD137 (the extracellular domain of human or cynomolgus monkey CD137 fused to a His tag (shCD137 His or scyCD137 His) or to a human Fc Region (shCD137 hFc or scyCD137 hFc)), each at 0.5 or 1 μg/mL. The plates were washed, blocked with PBS buffer containing 0.5% bovine serum albumin and 0.1% Tween20, and incubated with a test article (e.g., cell supernatants or purified mAb). For the hybridoma supernatants anti-CD137 antibody was utilized at 1.0 μg/mL and six three-fold serial dilutions. The amount of test article binding to the immobilized CD137 (human or cynomolgus monkey) was assessed using a goat anti-mouse IgG-HRP secondary antibody. All samples were analyzed on a plate reader (Victor 2 Wallac, Perkin Elmer) and EC50 values were calculated from dose-response curves by nonlinear regression analysis.

[5] = molecular target: T3, His-tagged soluble human CD137 fusion …; assay: BIACORE SPR, antibody captured on anti-human Fc, soluble CD137 His as analyte, 1:1 model
Excerpt: The binding kinetics of the anti-CD137 antibodies (having human Fc regions) were investigated using BIACORE™ SPR analysis. The anti-CD137 antibodies were captured on a Fab′2 goat-anti-human Fc surface.

[6] = molecular target: T1, CD137 expressed on the cell surface …; assay: flow cytometry on CHO/CD137 cells (Surface Binding)
Experimental: FACS analysis to evaluate the test articles for binding to cell surface CD137 was performed essentially as follows: 100 μL of CHO cells expressing CD137 (CHO/CD137) (1.0×10⁵ to 1×10⁶ cells/well) and 100 μL of serially diluted test article or control was added to each well of microtiter assay plate(s), mixed and incubated at RT for about 30 min. The cells were washed with FACS Buffer and secondary antibody (goat anti-human-APC, PE, or FITC) was then added to each well (1:1000), after which, the components were mixed and the wells were incubated at RT for about 30 min. Cells were washed and resuspended in 250 μL FACS Buffer and analyzed by flow cytometry (BD LSR Fortessa or FACSCanto II) for cell events collection. Data analysis were performed via FloJo v10.

[7] = molecular target: T4, soluble cynomolgus monkey CD137 (cyCD137) (cynomolgus monkey, UniProt A9YYE7 24-186); assay: ELISA, plate-coated soluble cynomolgus CD137, hybridoma supernatant
T4 construct: extracellular domain; also called scyCD137 His; scyCD137 hFc; not shown: His tag or human Fc Region
T4 sequence (A9YYE7 entry or part of it): as the sequence (Q07011 24-186) above, with P4L, N19S, R50K, T66I, P67S, F69Y, G75E, V149A counted along it
Experimental: as §1

[8] = molecular target: T4, soluble cynomolgus monkey CD137 …; assay: ELISA, plate-coated soluble cynomolgus CD137
[9] = molecular target: T3, His-tagged soluble human CD137 fusion …; assay: ELISA, plate-coated soluble human CD137

EC50 (read off the curve) [1]: ~0.01 µg/mL
EC50 (read off the curve) [2]: ~0.4 µg/mL
EC50 (read off the curve) [3]: ~0.2 µg/mL
B1: TRIDENT-A4 (bispecific antibody, human IgG1, kappa, L234A L235A)
chain 1: EIVMTQSPATLSLTPGERATLSCRASQSVSSNYLSWFQQIPGQAPRLLIYGASTRATGIPARFSGSGSGTDFTLTISSLQPEDFAVYYCQQDYDLPWTFGQGTKVEIKGGGSGGGGQVQLQESGPGLVKPSETLSLTCTVSGGSISSYYWSWIRQPPGKGLEWIGRIYTSGSTNYNPSLKSRVTMSVDTSKNQFSLKLSSVTAADTAVYYCARDGWYDEDYNYYGMDVWGQGTTVTVSSGGCGGGEVAALEKEVAALEKEVAALEKEVAALEKGGGDKTHTCPPCPAPEAAGGPSVFLFPPKPKDTLYITREPEVTCVVVDVSHEDPEVKFNWYVDGVEVHNAKTKPREEQYNSTYRVVSVLTVLHQDWLNGKEYKCKVSNKALPAPIEKTISKAKGQPREPQVYTLPPSREEMTKNQVSLWCLVKGFYPSDIAVEWESNGQPENNYKTTPPVLDSDGSFFLYSKLTVDKSRWQQGNVFSCSVMHEALHNHYTQKSLSLSPGK
chain 2: EIVMTQSPATLSLTPGERATLSCRASQSVSSNYLSWFQQIPGQAPRLLIYGASTRATGIPARFSGSGSGTDFTLTISSLQPEDFAVYYCQQDYDLPWTFGQGTKVEIKGGGSGGGGQVQLQESGPGLVKPSETLSLTCTVSGGSISSYYWSWIRQPPGKGLEWIGRIYTSGSTNYNPSLKSRVTMSVDTSKNQFSLKLSSVTAADTAVYYCARDGWYDEDYNYYGMDVWGQGTTVTVSSGGCGGGKVAALKEKVAALKEKVAALKEKVAALKE
heavy: EVQLVESGGGLVQPGGSLRLSCAASGFTFSSYTMSWVRQAPGKGLEWVAYISIKGGTTYYPDTVKGRFTISRDNAKNSLYLQMNSLRAEDTAVYYCARQGLPYYGDYWGQGTLVTVSSASTKGPSVFPLAPSSKSTSGGTAALGCLVKDYFPEPVTVSWNSGALTSGVHTFPAVLQSSGLYSLSSVVTVPSSSLGTQTYICNVNHKPSNTKVDKRVEPKSCDKTHTCPPCPAPEAAGGPSVFLFPPKPKDTLYITREPEVTCVVVDVSHEDPEVKFNWYVDGVEVHNAKTKPREEQYNSTYRVVSVLTVLHQDWLNGKEYKCKVSNKALPAPIEKTISKAKGQPREPQVYTLPPSREEMTKNQVSLSCAVKGFYPSDIAVEWESNGQPENNYKTTPPVLDSDGSFFLVSKLTVDKSRWQQGNVFSCSVMHEALHNRYTQKSLSLSPGK
light: DIQMTQSPSSLSASVGDRVTITCKASQDVNEAVAWYQQKPGKAPKLLIYWASTRHTGVPSRFSGSGSGTDFTLTISSLQPEDFATYYCQQHYNTPLTFGQGTKVEIKRTVAAPSVFIFPPSDEQLKSGTASVVCLLNNFYPREAKVQWKVDNALQSGNSQESVTEQDSKDSTYSLSSTLTLSKADYEKHKVYACEVTHQGLSSPVTKSFNRGEC
notes: Trivalent; two CD137 MAB-6(1.1) sites, one hPD-L1 MAB-2(3.2) site

EC50 [4]: 0.038 µg/mL
Kd [5]: 16 nM
koff [5]: 0.0067 s⁻¹
kon [5]: 420000 M⁻¹ s⁻¹
EC50 [6]: 0.021 µg/mL
EC50 [7]: 0.049 µg/mL
B2: CD137 MAB-6 (1.1) (antibody, V domains shown)
VH: QVQLQESGPGLVKPSETLSLTCTVSGGSISSYYWSWIRQPPGKGLEWIGRIYTSGSTNYNPSLKSRVTMSVDTSKNQFSLKLSSVTAADTAVYYCARDGWYDEDYNYYGMDVWGQGTTVTVSS
VL: EIVMTQSPATLSLTPGERATLSCRASQSVSSNYLSWFQQIPGQAPRLLIYGASTRATGIPARFSGSGSGTDFTLTISSLQPEDFAVYYCQQDYDLPWTFGQGTKVEIK
notes: Fully human variable domains from a TRIANNI MOUSE hybridoma

EC50 [8]: 0.044 µg/mL
EC50 [9]: 0.034 µg/mL
Kd [5]: 38 nM
koff [5]: 0.025 s⁻¹
kon [5]: 660000 M⁻¹ s⁻¹
EC50 [6]: 0.01 µg/mL
B3: chCD137 MAB-3 (antibody, V domains shown)
VH: QVQLQQPGAELVRPGASVKLSCKASGYTFTSYWINWVKQRPGQGLEWIGNIYPSDSYTNYNQKFKDKATLTVDKSSSTAYMQLSSPTSEDSAVYYCTRDYGSSYSFDYWGQGTTLTVSS
VL: DIQMTQTTSSLSASLGDRVTISCRPSQDISNYLNWYQQKPDGTVKLLIYYTSRLRSGVPSRFSGSGSGTDYSLTISNLEQEDIATYFCQQGDTLPYTFGGGTKLEIK
